The test system of test [1] is hPSC-derived hepatoblast aggregates. The test is described as follows: Growth factor addition to hepatoblast aggregates co-cultured on OP9 stroma. The test is classed as cell-based, human. Conditions: for cholangiocyte branching: hepatoblasts co-cultured with OP9. The text has this:
To investigate the effect of Notch signaling on cholangiocyte development, we co-cultured the hepatoblast population (day 25) with OP9 stromal cells that are known to express different Notch ligands including Jagged-1^4,5. […] To overcome this problem, we generated 3D aggregates from the day 25 monolayer cells and cultured them on the OP9 stromal cells.

The subject of test [2] is hESC-derived embryoid bodies. Kind of test: Endoderm induction in hESC-derived embryoid bodies, flow cytometry. The test is classed as cell-based, human. The note with it: day six EBs. Here is the method: Similar to protocols using monolayer cultures^16, it involves specific steps that recapitulate the critical stages of liver development in the early embryo. EBs are formed from small aggregates by culture for 24 hours in low levels of BMP4, as previously described^18. The EBs are subsequently exposed to high concentrations of activin A (hereafter referred to as activin) for five days to induce definitive endoderm, a population defined by expression of the surface markers CXCR4, CKIT and EPCAM and the transcription factors SOX17 and FOXA2.
Addition of Wnt3A to the activin-induced EB cultures led to reproducible increases in the proportion of CXCR4^+, SOX17^+ and FOXA2^+ cells within the EBs (FIG. 1c). With the increase in CXCR4 expression, the proportion of CKIT^+CXCR4^+ and CXCR4^+EPCAM^+ cells increased to greater than 95% of the population. […] Endoderm induction in the EBs was influenced by the base culture media used. StemPro34 supported more efficient endoderm induction than neural basal media that we used previously (FIG. 1f). The induction of highly enriched endoderm is an important first step in the efficient and reproducible generation of hepatocyte-like cells from hPSCs.
Media was changed every 3 days.
Flow cytometric analyses were performed as described previously^45. […] Stained cells were analyzed using an LSRII flow cytometer (BD).
In general terms: A flow cytometer gives signals particle by particle.

B1: EGF: Epidermal Growth factor (protein, UniProt P01133 23-1207, looked up)
Pro-epidermal growth factor: PQHWSCPEGTLAGNGNSTCVGPAPFLIFSHGNSIFRIDTEGTNYEQLVVDAGVSVIMDFHYNEKRIYWVDLERQLLQRVFLNGSRQERVCNIEKNVSGMAINWINEEVIWSNQQEGIITVTDMKGNNSHILLSALKYPANVAVDPVERFIFWSSEVAGSLYRADLDGVGVKALLETSEKITAVSLDVLDKRLFWIQYNREGSNSLICSCDYDGGSVHISKHPTQHNLFAMSLFGDRIFYSTWKMKTIWIANKHTGKDMVRINLHSSFVPLGELKVVHPLAQPKAEDDTWEPEQKLCKLRKGNCSSTVCGQDLQSHLCMCAEGYALSRDRKYCEDVNECAFWNHGCTLGCKNTPGSYYCTCPVGFVLLPDGKRCHQLVSCPRNVSECSHDCVLTSEGPLCFCPEGSVLERDGKTCSGCSSPDNGGCSQLCVPLSPVSWECDCFPGYDLQLDEKSCAASGPQPFLLFANSQDIRHMHFDGTDYGTLLSQQMGMVYALDHDPVENKIYFAHTALKWIERANMDGSQRERLIEEGVDVPEGLAVDWIGRRFYWTDRGKSLIGRSDLNGKRSKIITKENISQPRGIAVHPMAKRLFWTDTGINPRIESSSLQGLGRLVIASSDLIWPSGITIDFLTDKLYWCDAKQSVIEMANLDGSKRRRLTQNDVGHPFAVAVFEDYVWFSDWAMPSVMRVNKRTGKDRVRLQGSMLKPSSLVVVHPLAKPGADPCLYQNGGCEHICKKRLGTAWCSCREGFMKASDGKTCLALDGHQLLAGGEVDLKNQVTPLDILSKTRVSEDNITESQHMLVAEIMVSDQDDCAPVGCSMYARCISEGEDATCQCLKGFAGDGKLCSDIDECEMGVPVCPPASSKCINTEGGYVCRCSEGYQGDGIHCLDIDECQLGEHSCGENASCTNTEGGYTCMCAGRLSEPGLICPDSTPPPHLREDDHHYSVRNSDSECPLSHDGYCLHDGVCMYIEALDKYACNCVVGYIGERCQYRDLKWWELRHAGHGQQQKVIVVAVCVVVLVMLLLLSLWGAHYYRTQKLLSKNPKNPYEESSRDVRSRRPADTEDGMSSCPQPWFVVIKEHQDLKNGGQPVAGEDGQAADGSMQPTSWRQEPQLCGMGTEQGCWIPVSSDKGSCPQVMERSFHMPSYGTQTLEGGVEKPHSLLSANPLWQQRALDPPHQMELTQ
modifications: Pro-epidermal growth factor
For B1, the “development of CK19+ clusters” value in test [1] (OP9 co-culture) is recorded as “increase in the size”.

B2: TGFβ3: TGFbeta family member (protein, UniProt P10600 301-412, looked up)
Transforming growth factor …: ALDTNYCFRNLEENCCVRPLYIDFRQDLGWKWVHEPKGYYANFCSGPCPYLRSADTTHSTVLGLYNTLNPEASASPCCVPQDLEPLTILYYVGRTPKVEQLSNMVVKSCKCS
modifications: Transforming growth factor beta-3
notes: TGFbeta family member
As to B2, in test [1], the cholangiocyte branching entry was “promote branching structures”.

B3: TGFβ2: TGFbeta family member (protein, UniProt P61812 303-414, looked up)
Transforming growth factor …: ALDAAYCFRNVQDNCCLRPLYIDFKRDLGWKWIHEPKGYNANFCAGACPYLWSSDTQHSRVLSLYNTINPEASASPCCVSQDLEPLTILYYIGKTPKIEQLSNMIVKSCKCS
modifications: Transforming growth factor beta-2
notes: TGFbeta family member
As to B3, the cholangiocyte branching result in test [1] is reported as “promote branching structures”.

B4: Wnt3A: wingless-type MMTV integration site family, member 3A factor, added to activin-induced EB cultures (protein, UniProt P56704 19-352, looked up)
Protein Wnt-3a: SYPIWWSLAVGPQYSSLGSQPILCASIPGLVPKQLRFCRNYVEIMPSVAEGIKIGIQECQHQFRGRRWNCTTVHDSLAIFGPVLDKATRESAFVHAIASAGVAFAVTRSCAEGTAAICGCSSRHQGSPGKGWKWGGCSEDIEFGGMVSREFADARENRPDARSAMNRHNNEAGRQAIASHMHLKCKCHGLSGSCEVKTCWWSQPDFRAIGDFLKDKYDSASEMVVEKHRESRGWVETLRPRYTYFKVPTERDLVYYEASPNFCEPNPETGSFGTRDRTCNVSSHGIDGCDLLCCGRGHNARAERRREKCRCVFHWCCYVSCQECTRVYDVHTCK
Regarding B4, the “proportion co-expressing CXCR4 and CKIT or CXCR4 and EPCAM” value in test [2] is “greater than 95%”.
